Values of other authors in US20060104951A1, “Akt and regulation of RA synovial fibroblast apoptosis” (priority 2004, published 2006).

Test system: Akt
Conditions: Cell: HL-60

B1: Focal adhesion kinase: pathway kinase whose overexpression activates Akt in HL-60 (protein, UniProt Q05397 2-1052, looked up)
Focal adhesion kinase 1: AAAYLDPNLNHTPNSSTKTHLGTGMERSPGAMERVLKVFHYFESNSEPTTWASIIRHGDATDVRGIIQKIVDSHKVKHVACYGFRLSHLRSEEVHWLHVDMGVSSVREKYELAHPPEEWKYELRIRYLPKGFLNQFTEDKPTLNFFYQQVKSDYMLEIADQVDQEIALKLGCLEIRRSYWEMRGNALEKKSNYEVLEKDVGLKRFFPKSLLDSVKAKTLRKLIQQTFRQFANLNREESILKFFEILSPVYRFDKECFKCALGSSWIISVELAIGPEEGISYLTDKGCNPTHLADFTQVQTIQYSNSEDKDRKGMLQLKIAGAPEPLTVTAPSLTIAENMADLIDGYCRLVNGTSQSFIIRPQKEGERALPSIPKLANSEKQGMRTHAVSVSETDDYAEIIDEEDTYTMPSTRDYEIQRERIELGRCIGEGQFGDVHQGIYMSPENPALAVAIKTCKNCTSDSVREKFLQEALTMRQFDHPHIVKLIGVITENPVWIIMELCTLGELRSFLQVRKYSLDLASLILYAYQLSTALAYLESKRFVHRDIAARNVLVSSNDCVKLGDFGLSRYMEDSTYYKASKGKLPIKWMAPESINFRRFTSASDVWMFGVCMWEILMHGVKPFQGVKNNDVIGRIENGERLPMPPNCPPTLYSLMTKCWAYDPSRRPRFTELKAQLSTILEEEKAQQEERMRMESRRQATVSWDSGGSDEAPPKPSRPGYPSPRSSEGFYPSPQHMVQTNHYQVSGYPGSHGITAMAGSIYPGQASLLDQTDSWNHRPQEIAMWQPNVEDSTVLDLRGIGQVLPTHLMEERLIRQQQEMEEDQRWLEKEERFLKPDVRLSRGSIDREDGSLQGPIGNQHIYQPVGKPDPAAPPKKPPRPGAPGHLGSLASLSSPADSYNEGVKLQPQEISPPPTANLDRSNDKVYENVTGLVKAVIEMSSKIQPAPPEEYVPMVKEVGLALRTLLATVDETIPLLPASTHREIEMAQKLLNSDLGELINKMKLAQQYVMTSLQQEYKKQMLTAAHALAVDAKNLLDVIDQARLKMLGQTRPH
For B1, the Action is listed as “Activates Akt”.
